Laboratory results reported in US8734849B2, “Multiparticle pharmaceutical dosage form containing a mucoadhesively formulated peptide or protein active substances method for producing said pharmaceutical dosage form” (Evonik Roehm GmbH, priority 2003, dated 2014).
Where a SMILES comes first, the peptide text is derived from it. [ ]: non-standard residue; d: D form. dPhe(4-Cl) = N[C@H](Cc1ccc(Cl)cc1)C(=O)O; d2Nal = N[C@H](Cc1ccc2ccccc2c1)C(=O)O; dCit = NC(=O)NCCC[C@@H](N)C(=O)O; d3Pal = N[C@H](Cc1cccnc1)C(=O)O

Assay: Solubility in water according to DAB 10
Format: physicochemical
Excerpt: The solubility in water for the active substance and the substance or substances forming the lipophilic matrix can be defined as specified in DAB 10 (Deutsches Arzneibuch, 10th edition with 3rd supplement 1994, Deutscher Apothekerverlag, Stuttgart und Govi Verlag, Frankfurt/Main, 2nd supplement (1993), IV Allgemeine Vorschriften, pp. 5-6, “Löslichkeit und Lösungsmittel”; see also Ph. Eur. Jul. 4, 2004). The solubility is defined by the number of parts by volume of solvent for 1 part by weight of substance or drug. The definition of “sparingly soluble” includes substances which require from 30 to 100 parts by volume of solvent for 1 part by weight of substance or drug, and the definition of “slightly soluble” includes substances which require from 100 to 1000 parts by volume of solvent for 1 part by weight of substance or drug.

**Q.** With “Erythropoetin alfa: slightly soluble protein active substance” as the compound, how does the “solubility in water according to DAB 10” value read?
**A.** at least 500 parts of water for 1 part of active substance

**Q.** And the “solubility in water, equivalent” value?
**A.** 2000 µg/mL

**Q.** Which “solubility in water according to DAB 10” value does the source give for `CC(=O)N[C@H](Cc1ccc2ccccc2c1)C(=O)N[C@H](Cc1ccc(Cl)cc1)C(=O)N[C@H](Cc1cccnc1)C(=O)N[C@@H](CO)C(=O)N[C@@H](Cc1ccc(O)cc1)C(=O)N[C@H](CCCNC(N)=O)C(=O)N[C@@H](CC(C)C)C(=O)N[C@@H](CCCNC(=N)N)C(=O)N1CCC[C@H]1C(=O)N[C@H](C)C(N)=O` [Cetrorelix acetate] (Ac-[d2Nal][dPhe(4-Cl)][d3Pal]SY[dCit]LRP[dA]-NH2) here?
**A.** at least 1000 parts of water for 1 part of active substance

**Q.** And the solubility (equivalent of the DAB 10 parts)?
**A.** 1000 µg/mL
